T1: recombinant human FLT3 (Homo sapiens, UniProt P36888)
T1 construct: purchased Sino Biological 10445-H08H
T1 sequence (P36888 27-541 limits assumed): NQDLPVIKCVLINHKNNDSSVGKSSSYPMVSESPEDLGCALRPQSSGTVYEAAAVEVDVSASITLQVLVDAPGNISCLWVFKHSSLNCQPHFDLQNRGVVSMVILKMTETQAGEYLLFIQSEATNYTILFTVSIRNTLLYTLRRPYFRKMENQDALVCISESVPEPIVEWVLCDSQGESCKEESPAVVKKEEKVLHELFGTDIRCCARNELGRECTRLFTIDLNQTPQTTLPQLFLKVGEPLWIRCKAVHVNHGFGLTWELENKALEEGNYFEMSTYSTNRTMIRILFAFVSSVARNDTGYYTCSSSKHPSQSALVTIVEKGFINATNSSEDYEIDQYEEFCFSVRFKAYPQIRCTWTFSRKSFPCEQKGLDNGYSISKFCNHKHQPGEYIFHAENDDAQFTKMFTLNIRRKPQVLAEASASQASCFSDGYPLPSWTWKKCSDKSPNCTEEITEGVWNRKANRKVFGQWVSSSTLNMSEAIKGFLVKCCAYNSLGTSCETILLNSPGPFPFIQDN

T2: Ba/F3 cells expressing human wildtype FLT3 (Homo sapiens, UniProt P36888)
T2 construct: expressed in transfected cells; host or cells: Ba/F3 cells, retrovirally transduced with MSCV-IRES-YFP (pMIY) vector
T2 sequence (P36888 27-993): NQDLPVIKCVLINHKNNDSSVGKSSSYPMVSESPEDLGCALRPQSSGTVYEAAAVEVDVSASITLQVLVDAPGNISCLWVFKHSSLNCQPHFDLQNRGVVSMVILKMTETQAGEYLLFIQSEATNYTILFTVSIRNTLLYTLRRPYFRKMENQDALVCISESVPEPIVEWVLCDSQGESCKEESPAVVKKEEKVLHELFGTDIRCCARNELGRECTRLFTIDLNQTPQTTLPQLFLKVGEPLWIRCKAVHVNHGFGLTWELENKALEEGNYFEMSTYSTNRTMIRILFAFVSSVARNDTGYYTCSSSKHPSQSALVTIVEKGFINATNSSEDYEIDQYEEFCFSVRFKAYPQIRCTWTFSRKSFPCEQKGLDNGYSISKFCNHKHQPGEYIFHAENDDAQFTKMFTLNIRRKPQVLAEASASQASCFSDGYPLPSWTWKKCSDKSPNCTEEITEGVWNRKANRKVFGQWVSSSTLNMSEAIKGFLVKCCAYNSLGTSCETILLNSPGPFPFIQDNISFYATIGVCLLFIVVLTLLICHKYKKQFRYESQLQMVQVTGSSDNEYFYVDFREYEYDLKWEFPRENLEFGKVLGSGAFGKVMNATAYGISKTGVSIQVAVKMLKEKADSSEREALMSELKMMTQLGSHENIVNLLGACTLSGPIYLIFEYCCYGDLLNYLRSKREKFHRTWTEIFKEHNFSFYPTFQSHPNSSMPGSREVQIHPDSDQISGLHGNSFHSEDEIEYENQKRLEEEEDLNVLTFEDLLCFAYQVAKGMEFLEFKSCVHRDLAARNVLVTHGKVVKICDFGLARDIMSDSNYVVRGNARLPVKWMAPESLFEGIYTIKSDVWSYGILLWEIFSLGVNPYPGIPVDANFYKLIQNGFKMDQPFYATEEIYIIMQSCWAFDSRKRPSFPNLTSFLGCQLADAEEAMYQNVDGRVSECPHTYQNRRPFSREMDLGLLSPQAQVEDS

B1: 19H5: chimeric anti-FLT3 antibody from rat; VH SEQ ID NO: 17, VL SEQ ID NO: 18 (antibody, V domains shown)
VH: MVQPSQTLSLTCTVSGFSLTSYNVNWVRQPPGKGLEWIGAMWRGGGTDYNPALKSRLSISRDTSKSQVFLKMNRLQTEDTAIYFCTRGFGDYWGQGVMVTVSSA
VL: DVQMTQSPSSMSASLGDRVTFTCQASQDIGNNLIYFQQKPGKSPRRMICCATNLAHGVPSRFSGSRSGSDYSLTLVSLESEDVADYHCLQYEHYPRTFGGGTKLELKR
modifications: Clone 19H5, heavy chain variable region without a signal seqeunce; Clone 19H5, light chain variable region without a signal seqeunce
B2: 2F12: chimeric anti-FLT3 antibody from rat; VH SEQ ID NO: 7, VL SEQ ID NO: 8 (antibody, V domains shown)
VH: EVKLEESGGGLVQPGGSMKLSCVASGFTFSNYWMNWVRQSPEKGLEWVAQIRLKSDNYATHYAESVKGRFTISRDDSKDSVYLQMNNLRAEDTGIYYCAVSLARSDYWGQGTTLTVSSA
VL: DVVMTQSPPSLSASLGDKVTITCQASQNINKYIAWYQQKPGKAPRLLIRYTSTLESGTPSRFSGSGSGRDFSFSISNVESEDIASYYCLQYVNLPRTFGGGTKLELKR
modifications: Clone 2F12, heavy chain variable region without a signal seqeunce; Clone 2F12, light chain variable region without a signal seqeunce

Legend:
[1] = molecular target: T1, recombinant human FLT3; assay: ELISA affinity to recombinant human FLT3; format: binding; conditions: chimeric Ab clones
Text: FIG. 1: Evaluation of epitope specificity and internalization capability of anti-FLT3 monoclonal antibodies. (A) Affinity of seven anti-FLT3 monoclonal antibody (mab) clones to recombinant human FLT3 measured in enzyme-linked immunosorbent assay (ELISA) normalized to the binding of the antibodies to BSA control. […] (B) Schematic FLT3 receptor. Black arrows indicate common mutations and blue arrows indicate the three identified epitopes of seven anti-FLT3 antibodies analyzed in linear epitope mapping by PEPperPRINT. Figure was created with BioRender.com. (C) Binding and temperature induced internalization of anti-FLT3 antibodies in Ba/F3 cells expressing human wildtype FLT3. Internalization was induced by incubation for 30 min at 37° C. (grey) compared to 4° C. (black). Remaining surface-bound antibody was detected in flow cytometry. MFI was normalized to control human IgG1 binding. MFI=mean fluorescence intensity. […] (D) Cell surface binding of 20D9 mab or control human IgG1 antibody to Ba/F3 cells stably expressing pMIY (Ba/F3-pMIY) empty vector (ev), human wildtype (hFLT3 wt) or ITD mutant human FLT3 (hFLT3ITD) was measured in flow cytometry. Mean±s.d. of n=3. (E) Temperature induced internalization of 4B12 mab in MOLM-13 (FLT3 positive) cells after 30 min incubation at 37° C. compared to 4° C. and HL-60 (FLT3 negative) after 37° C. incubation assessed in immunofluorescence staining. Red=FLT3 staining by 4B12, Green=membrane staining by Vybrant DiO, Blue=nuclear staining by DAPI. Scale bar 5 μm. Representative pictures are shown. (F) Cell surface binding of 20D9 mab or control hIgG1 antibody to Ba/F3-pMIY ev, hFLT3 wt, murine (mFLT3 wt) or cynomolgues monkey FLT3 (cynoFLT3 wt) was measured in flow cytometry. Mean±s.d. of n=3. (G) Cell surface binding of 20D9 mab or control hIgG1 antibody to Ba/F3-PMIY ev, hFLT3 wt or epitope mutant FLT3 (hFLT3/S50P/P54R) measured in flow cytometry. Mean±s.d. of n=3. (H) Cell surface binding of 20D9 mab or control hIgG1 antibody to Ba/F3-PMIY ev, hFLT3 wt or human CD64 (hCD64) measured in flow cytometry. Mean±s.d. of n=3.
Maxisorp plates were coated with human recombinant FLT3 protein (10445-H08H, Sino Biological). Chimeric (20D9) or humanized anti-FLT3 monoclonal antibodies (in house) and secondary alkaline phosphatase conjugated rabbit anti-human IgG antibody (309-055-008, Jackson Immunoresearch) were used. For detection, Attophos Fluorescent Substrate System (S1000, Promega) was applied. The fluorescence was read with excitation of 405 nm and emission at 500-550 nm. The calculation of the dissociation constant KD was performed using GraphPad Prism version 9.4.0.

[2] = tested on: MOLM-13 (FLT3 positive) cells; assay: Temperature induced internalization in MOLM-13, flow cytometry; format: cell-based, human; conditions: 30 min at 37° C. compared to 4° C.
Description: For antibody binding studies, cells were stained on ice with primary mouse, rat or human anti-FLT3 antibodies (in house) and secondary antibody Goat F(ab′)2 Anti-Human Ig-PE (2012-09), Goat Anti-Mouse IgG (H+L)-PE (1032-09) or Goat Anti-Rat IgG (H+L)-PE (3052-09) purchased from Southern Biotech. For internalization experiments, cells incubated with anti-FLT3 antibodies were washed and incubated for 30 min at 4° C. or 37° C. followed by staining with secondary antibody.

[3] = molecular target: T2, Ba/F3 cells expressing human wildtype FLT3; assay: Temperature induced internalization in Ba/F3-FLT3, flow cytometry; format: cell-based; conditions: 30 min at 37° C. compared to 4° C.
Text: FIG. 1: Evaluation of epitope specificity and internalization capability of anti-FLT3 monoclonal antibodies. (A) Affinity of seven anti-FLT3 monoclonal antibody (mab) clones to recombinant human FLT3 measured in enzyme-linked immunosorbent assay (ELISA) normalized to the binding of the antibodies to BSA control. […] (B) Schematic FLT3 receptor. Black arrows indicate common mutations and blue arrows indicate the three identified epitopes of seven anti-FLT3 antibodies analyzed in linear epitope mapping by PEPperPRINT. Figure was created with BioRender.com. (C) Binding and temperature induced internalization of anti-FLT3 antibodies in Ba/F3 cells expressing human wildtype FLT3. Internalization was induced by incubation for 30 min at 37° C. (grey) compared to 4° C. (black). Remaining surface-bound antibody was detected in flow cytometry. MFI was normalized to control human IgG1 binding. MFI=mean fluorescence intensity. […] (D) Cell surface binding of 20D9 mab or control human IgG1 antibody to Ba/F3 cells stably expressing pMIY (Ba/F3-pMIY) empty vector (ev), human wildtype (hFLT3 wt) or ITD mutant human FLT3 (hFLT3ITD) was measured in flow cytometry. Mean±s.d. of n=3. (E) Temperature induced internalization of 4B12 mab in MOLM-13 (FLT3 positive) cells after 30 min incubation at 37° C. compared to 4° C. and HL-60 (FLT3 negative) after 37° C. incubation assessed in immunofluorescence staining. Red=FLT3 staining by 4B12, Green=membrane staining by Vybrant DiO, Blue=nuclear staining by DAPI. Scale bar 5 μm. Representative pictures are shown. (F) Cell surface binding of 20D9 mab or control hIgG1 antibody to Ba/F3-pMIY ev, hFLT3 wt, murine (mFLT3 wt) or cynomolgues monkey FLT3 (cynoFLT3 wt) was measured in flow cytometry. Mean±s.d. of n=3. (G) Cell surface binding of 20D9 mab or control hIgG1 antibody to Ba/F3-PMIY ev, hFLT3 wt or epitope mutant FLT3 (hFLT3/S50P/P54R) measured in flow cytometry. Mean±s.d. of n=3. (H) Cell surface binding of 20D9 mab or control hIgG1 antibody to Ba/F3-PMIY ev, hFLT3 wt or human CD64 (hCD64) measured in flow cytometry. Mean±s.d. of n=3. […]

Row | Molecule | Affinity Kd [1] | Internalization in MOLM-13 [2] | Internalization in Ba/F3-FLT3 [3]
1 | B1 | 0.1339 µg/mL |  | 
2 | B2 | 3.981 µg/mL | 12% | 26%
